Target: the molecule itself
Test: SEC; purified recombinant AGT variants; single peak, elution volume of a ≈90 kDa dimer; data not shown

| Molecule | stoichiometry N |
| --- | --- |
| alanine:glyoxylate aminotransferase p.P11L, recombinant His-tagged (enzyme, human, UniProt P21549 1-392, looked up, alanine:glyoxylate aminotransferase (AGT), human, polymorphic variant p.P11L; source: E. coli BL21 (pCOLDII), purified (IMAC, SEC)) MASHKLLVTPLKALLKPLSIPNQLLLGPGPSNLPPRIMAAGGLQMIGSMSKDMYQIMDEIKEGIQYVFQTRNPLTLVISGSGHCALEAALVNVLEPGDSFLVGANGIWGQRAVDIGERIGARVHPMTKDPGGHYTLQEVEEGLAQHKPVLLFLTHGESSTGVLQPLDGFGELCHRYKCLLLVDSVASLGGTPLYMDRQGIDILYSGSQKALNAPPGTSLISFSDKAKKKMYSRKTKPFSFYLDIKWLANFWGCDDQPRMYHHTIPVISLYSLRESLALIAEQGLENSWRQHREAAAYLHGRLQALGLQLFVKDPALRLPTVTTVAVPAGYDWRDIVSYVIDHFDIEIMGGLGPSTGKVLRIGLLGCNATRENVDRVTEALRAALQHCPKKKL | 2 |
| alanine:glyoxylate aminotransferase p.I340M, recombinant His-tagged (enzyme, human, alanine:glyoxylate aminotransferase (AGT), human, polymorphic variant p.I340M; Crystallised here (PDB 2YOB); source: E. coli BL21 (pCOLDII), purified (IMAC, SEC)) MASHKLLVTPPKALLKPLSIPNQLLLGPGPSNLPPRIMAAGGLQMIGSMSKDMYQIMDEIKEGIQYVFQTRNPLTLVISGSGHCALEAALVNVLEPGDSFLVGANGIWGQRAVDIGERIGARVHPMTKDPGGHYTLQEVEEGLAQHKPVLLFLTHGESSTGVLQPLDGFGELCHRYKCLLLVDSVASLGGTPLYMDRQGIDILYSGSQKALNAPPGTSLISFSDKAKKKMYSRKTKPFSFYLDIKWLANFWGCDDQPRMYHHTIPVISLYSLRESLALIAEQGLENSWRQHREAAAYLHGRLQALGLQLFVKDPALRLPTVTTVAVPAGYDWRDIVSYVMDHFDIEIMGGLGPSTGKVLRIGLLGCNATRENVDRVTEALRAAL | 2 |
| alanine:glyoxylate aminotransferase p.F152I on the minor allele, recombinant His-tagged (enzyme, human, UniProt P21549 1-392, looked up, alanine:glyoxylate aminotransferase (AGT), human, PH1 mutation p.F152I in the minor allele; source: E. coli BL21 (pCOLDII), purified (IMAC, SEC)) MASHKLLVTPLKALLKPLSIPNQLLLGPGPSNLPPRIMAAGGLQMIGSMSKDMYQIMDEIKEGIQYVFQTRNPLTLVISGSGHCALEAALVNVLEPGDSFLVGANGIWGQRAVDIGERIGARVHPMTKDPGGHYTLQEVEEGLAQHKPVLLILTHGESSTGVLQPLDGFGELCHRYKCLLLVDSVASLGGTPLYMDRQGIDILYSGSQKALNAPPGTSLISFSDKAKKKMYSRKTKPFSFYLDIKWLANFWGCDDQPRMYHHTIPVISLYSLRESLALIAEQGLENSWRQHREAAAYLHGRLQALGLQLFVKDPALRLPTVTTVAVPAGYDWRDIVSYVMDHFDIEIMGGLGPSTGKVLRIGLLGCNATRENVDRVTEALRAALQHCPKKKL | 2 |
| alanine:glyoxylate aminotransferase p.G170R on the minor allele, recombinant His-tagged (enzyme, human, UniProt P21549 1-392, looked up, alanine:glyoxylate aminotransferase (AGT), human, PH1 mutation p.G170R in the minor allele (p.P11L, p.G170R and p.I340M in cis); source: E. coli BL21 (pCOLDII), purified (IMAC, SEC)) MASHKLLVTPLKALLKPLSIPNQLLLGPGPSNLPPRIMAAGGLQMIGSMSKDMYQIMDEIKEGIQYVFQTRNPLTLVISGSGHCALEAALVNVLEPGDSFLVGANGIWGQRAVDIGERIGARVHPMTKDPGGHYTLQEVEEGLAQHKPVLLFLTHGESSTGVLQPLDGFRELCHRYKCLLLVDSVASLGGTPLYMDRQGIDILYSGSQKALNAPPGTSLISFSDKAKKKMYSRKTKPFSFYLDIKWLANFWGCDDQPRMYHHTIPVISLYSLRESLALIAEQGLENSWRQHREAAAYLHGRLQALGLQLFVKDPALRLPTVTTVAVPAGYDWRDIVSYVMDHFDIEIMGGLGPSTGKVLRIGLLGCNATRENVDRVTEALRAALQHCPKKKL | 2 |
| alanine:glyoxylate aminotransferase p.R197Q on the minor allele, recombinant His-tagged (enzyme, human, UniProt P21549 1-392, looked up, alanine:glyoxylate aminotransferase (AGT), human, rare variant p.R197Q in the minor allele; source: E. coli BL21 (pCOLDII), purified (IMAC, SEC)) MASHKLLVTPLKALLKPLSIPNQLLLGPGPSNLPPRIMAAGGLQMIGSMSKDMYQIMDEIKEGIQYVFQTRNPLTLVISGSGHCALEAALVNVLEPGDSFLVGANGIWGQRAVDIGERIGARVHPMTKDPGGHYTLQEVEEGLAQHKPVLLFLTHGESSTGVLQPLDGFGELCHRYKCLLLVDSVASLGGTPLYMDQQGIDILYSGSQKALNAPPGTSLISFSDKAKKKMYSRKTKPFSFYLDIKWLANFWGCDDQPRMYHHTIPVISLYSLRESLALIAEQGLENSWRQHREAAAYLHGRLQALGLQLFVKDPALRLPTVTTVAVPAGYDWRDIVSYVMDHFDIEIMGGLGPSTGKVLRIGLLGCNATRENVDRVTEALRAALQHCPKKKL | 2 |
| alanine:glyoxylate aminotransferase p.I244T on the minor allele, recombinant His-tagged (enzyme, human, UniProt P21549 1-392, looked up, alanine:glyoxylate aminotransferase (AGT), human, PH1 mutation p.I244T in the minor allele (p.P11L, p.I244T and p.I340M in cis); source: E. coli BL21 (pCOLDII), purified (IMAC, SEC)) MASHKLLVTPLKALLKPLSIPNQLLLGPGPSNLPPRIMAAGGLQMIGSMSKDMYQIMDEIKEGIQYVFQTRNPLTLVISGSGHCALEAALVNVLEPGDSFLVGANGIWGQRAVDIGERIGARVHPMTKDPGGHYTLQEVEEGLAQHKPVLLFLTHGESSTGVLQPLDGFGELCHRYKCLLLVDSVASLGGTPLYMDRQGIDILYSGSQKALNAPPGTSLISFSDKAKKKMYSRKTKPFSFYLDTKWLANFWGCDDQPRMYHHTIPVISLYSLRESLALIAEQGLENSWRQHREAAAYLHGRLQALGLQLFVKDPALRLPTVTTVAVPAGYDWRDIVSYVMDHFDIEIMGGLGPSTGKVLRIGLLGCNATRENVDRVTEALRAALQHCPKKKL | 2 |
| alanine:glyoxylate aminotransferase p.A295T on the minor allele, recombinant His-tagged (enzyme, human, UniProt P21549 1-392, looked up, alanine:glyoxylate aminotransferase (AGT), human, rare variant p.A295T in the minor allele; source: E. coli BL21 (pCOLDII), purified (IMAC, SEC)) MASHKLLVTPLKALLKPLSIPNQLLLGPGPSNLPPRIMAAGGLQMIGSMSKDMYQIMDEIKEGIQYVFQTRNPLTLVISGSGHCALEAALVNVLEPGDSFLVGANGIWGQRAVDIGERIGARVHPMTKDPGGHYTLQEVEEGLAQHKPVLLFLTHGESSTGVLQPLDGFGELCHRYKCLLLVDSVASLGGTPLYMDRQGIDILYSGSQKALNAPPGTSLISFSDKAKKKMYSRKTKPFSFYLDIKWLANFWGCDDQPRMYHHTIPVISLYSLRESLALIAEQGLENSWRQHREATAYLHGRLQALGLQLFVKDPALRLPTVTTVAVPAGYDWRDIVSYVMDHFDIEIMGGLGPSTGKVLRIGLLGCNATRENVDRVTEALRAALQHCPKKKL | 2 |
| alanine:glyoxylate aminotransferase p.P319L on the minor allele, recombinant His-tagged (enzyme, human, UniProt P21549 1-392, looked up, alanine:glyoxylate aminotransferase (AGT), human, PH1 mutation p.P319L in the minor allele; source: E. coli BL21 (pCOLDII), purified (IMAC, SEC)) MASHKLLVTPLKALLKPLSIPNQLLLGPGPSNLPPRIMAAGGLQMIGSMSKDMYQIMDEIKEGIQYVFQTRNPLTLVISGSGHCALEAALVNVLEPGDSFLVGANGIWGQRAVDIGERIGARVHPMTKDPGGHYTLQEVEEGLAQHKPVLLFLTHGESSTGVLQPLDGFGELCHRYKCLLLVDSVASLGGTPLYMDRQGIDILYSGSQKALNAPPGTSLISFSDKAKKKMYSRKTKPFSFYLDIKWLANFWGCDDQPRMYHHTIPVISLYSLRESLALIAEQGLENSWRQHREAAAYLHGRLQALGLQLFVKDPALRLLTVTTVAVPAGYDWRDIVSYVMDHFDIEIMGGLGPSTGKVLRIGLLGCNATRENVDRVTEALRAALQHCPKKKL | 2 |
| alanine:glyoxylate aminotransferase p.A368T on the minor allele, recombinant His-tagged (enzyme, human, UniProt P21549 1-392, looked up, alanine:glyoxylate aminotransferase (AGT), human, PH1 mutation p.A368T in the minor allele; source: E. coli BL21 (pCOLDII), purified (IMAC, SEC)) MASHKLLVTPLKALLKPLSIPNQLLLGPGPSNLPPRIMAAGGLQMIGSMSKDMYQIMDEIKEGIQYVFQTRNPLTLVISGSGHCALEAALVNVLEPGDSFLVGANGIWGQRAVDIGERIGARVHPMTKDPGGHYTLQEVEEGLAQHKPVLLFLTHGESSTGVLQPLDGFGELCHRYKCLLLVDSVASLGGTPLYMDRQGIDILYSGSQKALNAPPGTSLISFSDKAKKKMYSRKTKPFSFYLDIKWLANFWGCDDQPRMYHHTIPVISLYSLRESLALIAEQGLENSWRQHREAAAYLHGRLQALGLQLFVKDPALRLPTVTTVAVPAGYDWRDIVSYVMDHFDIEIMGGLGPSTGKVLRIGLLGCNTTRENVDRVTEALRAALQHCPKKKL | 2 |

Target: Hsc70 chaperones of the rabbit reticulocyte lysate (rabbit (endogenous in rabbit reticulocyte lysate))
Test: co-IP; AGT variants made with 35S-Met in rabbit reticulocyte lysate (TnT) at 30°C for 2 h, stopped with cycloheximide; immunoprecipitation with anti-Hsc70 antibodies; SDS-PAGE and fluorography

| Molecule | fold increase in immunoprecipitated AGT compared to WT [fold] |
| --- | --- |
| alanine:glyoxylate aminotransferase p.P11L, made in a cell-free system (from UniProt P21549 1-392) (enzyme) | 4 |
| alanine:glyoxylate aminotransferase p.P319L on the minor allele, made in a cell-free system (from UniProt P21549 1-392) (enzyme) | 7 |
| alanine:glyoxylate aminotransferase minor allele (p.P11L/I340M), made in a cell-free system (from UniProt P21549 1-392) (enzyme) | 4 |
| alanine:glyoxylate aminotransferase p.H83R on the minor allele, made in a cell-free system (from UniProt P21549 1-392) (enzyme) | 4.8 |

From PMC3796444 (PLoS ONE, 2013)
